Data: the DeepSol protein solubility set

Experiment: soluble on expression in E. coli; label from the status in PepcDB or PDB records
For “MSLFFIYDFAMIMQFNSRYSDLNAKLYHQQAPVPLKGAKAGHFNEAIADELQWTSQEKQSWVDICSGQKTFDAFKPLAMVYAGHQFGQWAGQLGDGRGLLIGQVLHRSGQTIDLHLKGAGLTPYSRMGDGRAVLRSVIREYLAGHALNSLRVASSNAIGFTTSEQGVQRETLEQGAMLLRTSDCHIRLGHFEWINQYAPELLAEFTQKCIEWHYPEALQAEHPILAFAEGVIKNTAKMIADWQLVGFAHGVMNTDNLNITGSTLDFGPYGFMERFRPNWINNHSDHQGRYAYQNQPSIAHWNLWIWLNNLIPLSKPEDKETFKKQLADCLEHFEPTFLTAYTEGLCKKLGLPDFHKDSFDCGMAFLKVLQSEQLDYTQSFLRLQNHDYKALRDDCLDTRQFDDFLNLYHQIREHQDITALDQTMCDVNPVYILRNHMAQQAIEQAERGDFSEVERLFTLLAKPFTRQPALEKEQDLAPLPSDVPEIMVSCSSEGHHHHHH”, the “soluble on expression in E. coli” value was “not soluble”. With “MSLFLMDQYIKVDITVEENEQERIMAELLAIGFDSFAEHANMLEAYVEKSAFSEADLKEVLHEVNPAYTYTFAEMPNINWNEEWEKNFDPLVIANQCYVRASFHAERPEFQYEVVINPKMSFGTGHHAEGHHHHHH” the “soluble on expression in E. coli” value was “soluble”. For “MSLFPDKYDSYLYINQDKIREDLKRALKDALRICLFHITHKSPNIRTEKATRICYYRECGYTDEQIIDKILEEEYVGFVDNIESAIKSREARFRNPQNSAKIACFTENVQSKYMWDRYADGYKGFALEYDLRNCVFKYNKLGMNVNLFPVIYTDLRPDVTLDEGNIHTYEYFKQIGDKNWLNYLNSIISVNQLYWYKAYLYKDQKEYEHEHEWRMLYYNFENEEDYASIPDTGCLKAIYYGPDIAKKDKEKLHRIAVKKGLKEYDVNLDAESRKYDLKVTMFQEGHHHHHH”, the “soluble on expression in E. coli” value was “not soluble”. In the case of “MSLFQITKSKLRFPLSTFTKRYSSFQAAKSVIDKAAIDGELRVFIVSGEVSGDNIGSRLMSSLKKLSPLPIRFNGVGGSLMCKKGLNSLFPMEDLAVMGVWELLPHLYKFRVKLKETIDAAVKFKPHVVVTVDSKGFSFRLLKELRGKQHKTCFIKLVRENHEGHHHHHH”, the “soluble on expression in E. coli” value is reported as “not soluble”. For “MSLFQITKVEARIANYSLHQDRVIITSLGIHDRSRYLIITLTDELENQGFGEAATVMIWSGEAAETGLWIVQNRITPLLTGSHYDHPSEILTILDRALQGNPFLKASIDIAAWDLWARRQEKPVSALIGDRKPVESVPTRFSIGAYSVEDTVRLAVESWEAGIRTLKIKTGVPGLDDVARLKAVRERLGKEPILTIDANGAYQTEDQAVAAIEELLPFNLALVEQPTPRDRIGMMARVKQRVDVPILADESIFTPGELAEALDCDAMDLLSLYPGKNGGFTNSLKMAQTAQNAGKYCVIGSNMETDLGQAAMVCLAASLTAFPVEEYASDLMTGMIYTASSTSPALELNNGRLLTPLGTGFGVEPLHDEGHHHHHH”, the “soluble on expression in E. coli” value was “soluble”. With “MSLGATNRLACYSDPADHYSHRVRLVLAEKGVSVQLIDVDPAHLPRKLAEVNPYGSVPTLVDRDLALYESTVVMEYLEERYPHPPLMPVYPVARGNSRLLMHRIQRDWCALADTVLDPRSSEAARTEARKALRESLTGVSPLFSEFACFMSDEQSLVDCCLLPILWRLPVLGIELPRQAKPLLDYMERQFAREPFQASLSSVEREMRKLEGHHHHHH” the “soluble on expression in E. coli” value was “soluble”. For “MSLGDRMKIVMVTHGGEGDAFWDRVRKGAEAAAAKDGVDLTYAGDADTADQADLVRDAIRDKADGIAVTLAKPQAMKAPVAEAKAAGIPVVGLNSGIDAWRSTGLLEYFGQDESVAGRAVGDKLDDLRAKHALCVIHERGNVALEARCAGVKKTFGGETEMLYVEGTDMKAVGAAVTARLRQDPSIDEVVMNGAAFALTAVEAVDEAGSDAHVATFDLDNDLVAAVKRGDVQFAVDQQPYLQGYLAVDALWLYRTNGNVSGGGVAPVLTGPAFVTREGHHHHHH”, the “soluble on expression in E. coli” value was “soluble”. With “MSLGKFTAVILDFETTGLSPGYGDRAIEIGAVLVRNNRIVDRFQSLMNPGKRVSGFIEEYTGITNEMLAKAPPAEQVMERFASFIAGHNLVAHNASFDRRFLDAELSRIGRRRTGDFACSMLAARRIYTNAPNHRLETLVSHLSLQTDGVFHRALADAEMTAQLWTAMIGELKETYRLRQVTFELMHSLGGVAKKAVPAYLERVAAGREGHHHHHH” the “soluble on expression in E. coli” value was “not soluble”. For “MSLGLFSKKPPCPICGGKIPLILPSKIEDEYICNTCYNKIDMGADQENHLTMQGLREYLAFYEQNQRLKEQFVISERIDFGLWDTKIIFDHRNKLFCMSKNPDKTVFEGQQLKSFTIKEDSTPLFEGSAAGIRRYASTVTERTMAMAPQIAQSAANRRMARTLDRLDDGKVNNSAPVQYFDIPEPFQAFNVELHFDHPYWTVLQCDMDGPRFDNSHPDVNNYLRSYQQSIEEIEKLVAALRTVAFPGAAEQSVGLGPVGMQAAYTTMAPPTDAIEEIKKYKALMEDGIISQQEFEAKKKQLLGIEGHHHHHH”, the “soluble on expression in E. coli” value was “soluble”. In the case of “MSLGQIKGDLHMHSTWSDGAFSIREMAEACIKKGYQYMAITDHSQYLKVANGLTAERLKQQAKEIDALNAEFENFRILKGVEMDILPDGTLDYDDDVLAEMDIVIASIHSSFNQPEHVIMKRLETALTNKHVDIIAHPTGRLIGRRAGYEIDIDQLIELARKTNTALELNANPARLDLRTEHLMKANEQGVTLVINTDAHNIEMLDDMKTGVTAARKGWTETKNVLNARSLKDVEAFLKRNDEGHHHHHH”, the “soluble on expression in E. coli” value is reported as “soluble”. In the case of “MSLGRGMQKQRFCLDTSAFTEPSVRKALGVKTVTELTDKVMDLIAEARIKLNISCHIPYPTVYNELMGFLENENCPRDVIVKVDTWLVKKTPNRYEIKIPSEIFYEYVKDLRERINKGMRIGEEHIIKATDMVYELSKKHPEMGKNEIINKVLSKTINTFRNKYRSALRVGTLDSAPDLDVLLLAKELDAAVVASDGGIEKWAQRLGLRFVDASDFPFMLEEYLKHNDRHLRIKYEGHHHHHH”, the “soluble on expression in E. coli” value is reported as “soluble”. For “MSLGRRAAIYARYSTELQDGRSIDDQVALCREHAARSGLTVVATYDDRAKTSASIFGRDGLARMMEQARARQFDVVIVEALDRLSRDQEDLAHIHKRLSFARIDILTVHEGVADSVSVGLRGLMGTMFLEALKAKTRRGLAGVIRDGRHAGGQTYGYRGVPGEPGKREIVAHEAEIIREIFAAYVEGKSPRTIAGELNARGIAAPRGPKWNASTLNGNPQRGYGILRNPMYDGRLVWNRVTMVRDPDTGRRVNRENPLDARQEVEAEHLRIVPRPLFEAAVRRHAQQAEAVRTGKITKAPPRPFSGLIRCACCGGGMSIHDRCGEAIRIRCSTANESGSCENKARYRLEKIEEAIFLRLRAQLDRPDYLKEFVRVYAEERRRLTETARRDRARLERAAADSRARYMRLVDMMARGLIEGEEADAQVLQAKQAAEIARSELEIASSEDNVVELHPQATAAYTRAIADLSAALQRGDGTFDATSVEALRRIITEITVHPKDEAGDVLVEVRGNMERLLGIGQQIVGGPMVARGGLEPPTPREGHHHHHH”, the “soluble on expression in E. coli” value was “not soluble”. In the case of “MSLGSTTPISIFELVTRLENDSQVANDTKHLFFSGENIGYSEMIGRRPNMEDAIVIRENFREKLHIAAVFDGHSGHSVARSCAASLPDLLRNDETINSDAIKKHLDHINHVLLSSNDLAGSTMQFAIIDMNNNHLTIMQLGDSRSVVYKNDGRVTFYTQEMRPERRSELARLREDRIRLKRLRTGGMLACSTSIGDFQVKGISHEPEVIEMDISDDDRWIVIACDGLWDDVNNESAAKILLDSESPHVAATLLRDLAFQRGSEDNISVIVVDLDLLRNEGHHHHHH”, the “soluble on expression in E. coli” value is reported as “soluble”. For “MSLGTNPFYKIKREGEISLKLKNQLFRLYFLLIYSSLENLQMADKKSPVAVGMTVTPSNQANFVDAGSTTLMNKPGEPTFKLGINLNKVEFKCTEDRKPISVNLKLHNPMAVTVSYKVRCTSADIFRVQPPLGFVKPNETVSIVIWYQNQDKKDAISKNHYFAFYHTTSDGRTARELWANSKVEGVRRLPASFLSTK”, the “soluble on expression in E. coli” value was “not soluble”. With “MSLGTVHARSLEPLPASGPDFGALGEEAEFVEVEPEAKQEILENKDVVVQHVHFDGLGRTKDDIIMYEIRDVFKAKNLIEVMRKSHEAREKLLRLGIFRQVDVLIDTCQGDDALPNGLDVTFEVTELRRLTGSYNTMVGNNEGSMVLGLKLPNLLGRAEKVTFQFSYGTKETSYGLSFFKPQPGNFDRNFSVNLYKVTGQFPWSSLRETDRGVSAEYSFPTWKTSHTVKWEGVWRELGCLSRVASFAVRKESGHSLKSSLSHSMVIDSRNSSILPKRGALLKVNQELAGYTGGDVSFLKEDFELQLNKQLILDTVFSASLWGGMLVPMGDKPSSIADRFYLGGPTSVRGFSMHSVGPQSEGDYLGGEAYWAGGLHLYTPLPFRPGQGGFGELFRTHFFLNAGNLCNLNYGEGPKAHIRKLAECIRWSYGAGIVLRLGNIARLELNYCVPMGVQRGDRICDGVQFGAGIRFLEGHHHHHH” the “soluble on expression in E. coli” value was “not soluble”. For “MSLGVQPPNFSWVLPGRLAGLALPRLPAHYQFLLDLGVRHLVSLTERGPPHSDSCPGLTLHRLRIPDFCPPAPDQIDRFVQIVDEANARGEAVGVHCALGFGRTGTMLACYLVKERGLAAGDAIAEIRRLRPGSIETYEQEKAVFQFYQRTKEGHHHHHH”, the “soluble on expression in E. coli” value was “soluble”. In the case of “MSLHELDYYLIELDNPFCSDLPKIIAVHDKNLRYTSMGRGSSIEMRTITAYGEILERYCLWNQTPDLTSAFCADKPMLSPEEQVLPISESIDDREVEWKSYYSLSNHQRIFIHRPINSACYSNYFTQTSNGSAVHETEELAINSALEELIERHLFNIFWLFESNILEKSFSSDEIEHAIESGWRLDFYEIRDYKSCTICVMINRSDRRFSKGAMTVGLSFGSDSDACIRAYTECLQTLEAYLAFDKKVNNASLYYLSGKGTSQWQRKINTSLSSTPLSITKSVFEKYSPYMFTEKTNNDLVYCEVVMPHLIPLQYEHERDIRVNPDLLGHLTHRNMCYPIGEGHHHHHH”, the “soluble on expression in E. coli” value is reported as “not soluble”. In the case of “MSLHPHAMPDMGPDMNKVPWMGDEQIAMLVYPGMTVMDLVGPHCMFGSLMGAKIYIVAKSLDPVTSDAGLAIVPTATFGTCPRDLTVLFAPGGTDGTLAAASDAETLAFMADRGARAKYITSVCSGSLILGAAGLLKGYKATSHWSCRDALAGFGAIPTEARVVRDRNRITGAGVTAGLDFGLSMVAELRDQTYAECAQLMSEYDPDPPFNAGSMKTAPAHVRTAMIELVAEFTKKADALAGFPKEGHHHHHH”, the “soluble on expression in E. coli” value is reported as “soluble”. For “MSLIAPVLKGKGVLITRAKEQASSLSRLIEEAGGVPIEVPLLSFIKTMDVYEEVGASIQSYEWIVFTSANAVRFFFNTWPRQELKKLPSIAAVGSSTQRELSRYGISVDLMPNEYVAESLVETMVKRLKPCRVLFPKGNLARPTVKVGLETNGFIVDEMTVYETKRPLEAKVMLCEAFQKHRIEIITFTSPSAVDHFVTLLDREFILHEHLLYAYIGPIAAARAKQRGLPVHIVAKTYTGEGLVNAICDFVKEDGEGHHHHHH”, the “soluble on expression in E. coli” value was “soluble”. In the case of “MSLIEKLRNIAIIAHVDHGKTTLVDKLLQQSGTFDSRAETQERVMDSNDLEKERGITILAKNTAIKWNDYRINIVDTPGHADFGGEVERVMSMVDSVLLVVDAFDGPMPQTRFVTKKAFAYGLKPIVVINKVDRPGARPDWVVDQVFDLFVNLDATDEQLDFPIVYASALNGIAGLDHEDMAEDMTPLYQAIVDHVPAPDVDLDGPFQMQISQLDYNSYVGVIGIGRIKRGKVKPNQQVTIIDSEGKTRNAKVGKVLGHLGLERIETDLAEAGDIVAITGLGELNISDTVCDTQNVEALPALSVDEPTVSMFFCVNTSPFSGKEGKFVTSRQILDRLNKKLVHNVALRVEETEDADAFRVSGRGELHLSVLIENMRREGFELAVSRPKVIFREIDGRKQEPYENVTLDVEEQHQGSVMQALGERKGDLKNMNPDGKGRVRLDYVIPSRGLIGFRSEFMTMTSGTGLLYSTFSHYDDVRPGEVGQRQNGVLISNGQGKAVAFALFGLQDRGKLFLGHGAEVYEGQIIGIHSRSNDLTVNCLTGKKLTNMRASGTDEAVVLVPPIRMTLEQALEFIDDDELVEVTPTSIRIRKRHLTENDRRRANRAPKDEGHHHHHH”, the “soluble on expression in E. coli” value is reported as “soluble”.
